The record followed here is US20240209088A1 (NMI NATURWISSENSCHAFTLICHES UND MEDIZINISCHES INSTITUT AN …, published 2024).

Changes are numbered by the printed parent chain.

For test [1], the target named is T1, recombinant extracellular portion of human CD4 (domains D1-4) (human, UniProt P01730 26-396, for BLI biotinylated with 3-fold molar excess of biotin-N-hydroxysuccinimide ester; not biotinylated in HDX-MS).
T1 construct: extracellular domain; also called recombinant hCD4; extracellular domain of hCD4
As to the kind of experiment: BLI. Background: BLI is a label-free optical method that tracks binding on a fibre tip over time.

In test [2] the target is T1, recombinant extracellular portion of …. In words: biolayer interferometry on human CD4; the sheet prints Conc: 0.625 - 5 nM, four sensorgrams up to about 0.17 nm.
The target in test [3] is T2, hCD4 domain-deletion mutant lacking domain D1 (CD4_ΔD1) (human, UniProt P01730 26-458).
T2 construct: whole, on cells; Transiently expressed in CHO wt cells; also called pcDNA3.1_CD4_ΔD1_IRES-eGFP
In words: live-cell immunofluorescence of CHO cells transiently expressing the domain-deletion mutant, CF568-labeled Nb.

Test [4] has as its target T3, hCD4 domain-deletion mutant lacking domains D1 and D2 (CD4_ΔD1ΔD2) (human, UniProt P01730 26-458).
T3 construct: whole, on cells; Transiently expressed in CHO wt cells; also called pcDNA3.1_CD4_ΔD1ΔD2_IRES-eGFP
The description is as above.

The target in test [5] is T4, murine CD4 on mouse CD4+ cells (mouse, UniProt P06332 27-457).
T4 construct: whole, on cells; also called murine CD4+ lymphocytes
T4 sequence (looked up): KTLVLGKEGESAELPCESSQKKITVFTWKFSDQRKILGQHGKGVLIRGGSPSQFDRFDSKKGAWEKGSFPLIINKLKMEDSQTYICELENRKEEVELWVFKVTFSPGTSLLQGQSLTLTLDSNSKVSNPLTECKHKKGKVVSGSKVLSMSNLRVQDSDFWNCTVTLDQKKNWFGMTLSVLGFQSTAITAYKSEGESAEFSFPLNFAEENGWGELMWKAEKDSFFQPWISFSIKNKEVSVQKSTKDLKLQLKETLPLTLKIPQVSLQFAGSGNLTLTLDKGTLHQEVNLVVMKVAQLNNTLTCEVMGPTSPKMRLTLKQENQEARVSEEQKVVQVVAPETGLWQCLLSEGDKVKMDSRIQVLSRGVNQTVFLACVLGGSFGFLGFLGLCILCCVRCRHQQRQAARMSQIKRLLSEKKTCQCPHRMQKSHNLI
In words: flow cytometry of mouse CD4+ cells from spleen and lymph nodes. Background: Flow cytometry measures light scatter and fluorescence of single cells or particles in a stream.

Test [6] concerns the target T5, full-length human CD4 on cells (human, UniProt P01730 26-458).
T5 construct: whole, on cells; Stably expressed (CHO-hCD4, HEK293-hCD4) or endogenous (PBMCs, human CD4+ cells from blood, HPB-ALL, T cell lines); also called hCD4; cell-resident hCD4
In words: in vitro radioimmunoassay on HPB-ALL cells (data not shown).

The target of test [7] is T1, recombinant extracellular portion of …. As to the kind of experiment: BLI (affinity constants predetermined by BLI analysis).
Description: (§1) To determine the binding affinity of purified Nbs to recombinant hCD4, biolayer interferometry (BLItz, ForteBio) was performed. First, CD4 was biotinylated by 3-fold molar excess of biotin-N-hydroxysuccinimide ester. CD4 was then immobilized at single-use high-precision streptavidin biosensors (SAX) according to manufacturer's protocols. […] As a reference run, PBS was used instead of Nb in the association step. […] Recorded sensograms were analyzed using the BLItzPro software and dissociation constants (KD) were calculated based on global fits.
Test [8] has as its target T5, full-length human CD4 on cells. In words: flow cytometry on cells expressing hCD4.
Description: (§2) (E) EC₅₀ determination by flow cytometry.
(§3) For each staining condition 200,000 cells were incubated with suitable dilution series of CD4 nanobodies at 4° C. for 30 min. Cells were washed two times and for detection Cy5 AffiniPure Goat Anti-Alpaca IgG, VHH domain (Jackson ImmunoResearch) was applied for 15 min. […] Final data analysis was performed via FloJo10® software.
Test [9] concerns the target T1, recombinant extracellular portion of …. As to the kind of experiment: biolayer interferometry, biotinylated hCD4 immobilized on streptavidin biosensors.
Description: (§4) (D) For biolayer interferometry-based affinity measurements, biotinylated hCD4 was immobilized on streptavidin biosensors.
as §1
Test [10] has as its target T5, full-length human CD4 on cells. As to the kind of experiment: flow cytometry on HEK293-hCD4 cells, detection with anti-VHH Cy5 antibody; flow cytometry, full-length hCD4 on HEK293-hCD4 cells.
Test [11] has as its target T1, recombinant extracellular portion of …. In words: BLI, biotinylated extracellular domain of hCD4 on streptavidin sensor, serial dilutions of Nb; BLI on biotinylated extracellular domain of hCD4 at the sensor tip.
Description: as §1
(§5) To quantitatively assess affinities, biolayer interferometry (BLI) measuring serial dilutions of Nbs were performed on the biotinylated extracellular domain of hCD4 immobilized at the sensor tip.
In test [12] the target is T5, full-length human CD4 on cells. In words: flow cytometry, percentage of positively stained hCD4-expressing cells against Nb concentration; the subscript is redrawn as 56, EC50 by the legend paragraph 99.
Description: as §2, §3
Test [13] deals with T1, recombinant extracellular portion of …. In words: biolayer interferometry, biotinylated hCD4 immobilized on streptavidin biosensors, four Nb concentrations; the subscript is redrawn as O, KD by the legend paragraph 99.
Description: as §4, §1
For test [14], the target named is T5, full-length human CD4 on cells. In words: flow cytometry on HEK293-hCD4 cells, detection with anti-VHH Cy5 antibody.
Description: For each staining condition 200,000 cells were incubated with suitable dilution series of CD4 nanobodies at 4° C. for 30 min. Cells were washed two times and for detection Cy5 AffiniPure Goat Anti-Alpaca IgG, VHH domain (Jackson ImmunoResearch) was applied for 15 min. […] After two washing steps, samples were resuspended in 200 μl FACS buffer and analyzed with a BD FACSMelody Cell Sorter. Final data analysis was performed via FloJo10® software.
In addition, corresponding EC50 values were determined with full-length plasma membrane-located hCD4 on HEK293-hCD4 cells by flow cytometry.
Test [15] has as its target T1, recombinant extracellular portion of …. As to the kind of experiment: BLI, biotinylated extracellular domain of hCD4 on streptavidin sensor, serial dilutions of Nb.
Description: as §1, §5
Test [16] concerns the target T5, full-length human CD4 on cells. In words: flow cytometry, percentage of positively stained hCD4-expressing cells against Nb concentration, four-parametric sigmoidal model.
Test [17] has as its target T1, recombinant extracellular portion of …. As to the kind of experiment: biolayer interferometry, biotinylated hCD4 immobilized on streptavidin biosensors; box in the panel prints [CD4_Nb1]: 15.625-125 nM.
Description: as §1
Test [18] concerns the target T5, full-length human CD4 on cells. In words: flow cytometry, percentage of positively stained hCD4-expressing cells against Nb concentration, four-parametric sigmoidal model; the curve rises only to about 3 % at the highest concentration near 10^-4.5 M.
Test [19] has the same target. In words: live-cell immunofluorescence of CHO-hCD4 cells, unlabeled Nb detected with anti-VHH Cy5 secondary antibody.

B1: mutant CD4-Nb1 (all lysine residues replaced with arginine residues) (VHH)
VHH: EVQLVESGGGLVQPGGSLRLSCAASGFTFSRLAMSWHREPPGRGREWLADIDSSGDTTDYLASVRGRFTISRDNARNTLYLQMDSLRSEDTGVYYCASREDPPGYWGQGTQVTVSS
notes: Expressed in bacteria; also called mutant nanobody; mutant version of the nanobody
Regarding B1, the Kd was ~1 nM in [1] and 1 nM in test [2].

B2: CD4-Nb1 sortase-coupled to the fluorescent dye CF568 (VHH)
VHH: B1 VHH with R31K, R43K, R65K, R76K, R87K
modifications: C-terminus sortase-coupled to the CF568-coupled peptide H-Gly-Gly-Gly-Doa-Lys-NH2 (labeling ratio 1:1)
notes: also called CF568-labeled CD4-Nb1; CD4-Nbs-CF568
In the case of B2, the binding result in test [3] and in test [4] was “no binding (tested: not printed on the sheet)” in each case.

B3: CD4-Nb1-Cy5.5 (VHH)
VHH: B1 VHH with R31K, R43K, R65K, R76K, R87K
modifications: C-terminus sortase-coupled to H-Gly-Gly-Gly-propyl-azide, then click-labeled with DBCO-Cy5.5
notes: also called hCD4-Nb1-Cy5.5; Cy5.5-labeled CD4-Nb1
On to B3, for which the binding result in test [5] is recorded as “no binding”.

B4: ^64Cu-CD4-Nb1 (VHH)
VHH: B1 VHH with R31K, R43K, R65K, R76K, R87K
modifications: azide-coupled C-terminus reacted with BCN-NODAGA and radiolabeled with 64Cu
notes: also called ^64Cu-hCD4-Nb1
In the case of B4, the “fold over the non-specific binding to CD4-negative DHL cells or of the 64Cu-GFP-Nb control” value in [6] was ~30 times.

B5: CD4-Nb1 (VHH)
VHH: B1 VHH with R31K, R43K, R65K, R76K, R87K
notes: Unlabeled, expressed in E. coli; also called non-mutated CD4-Nb1
Regarding B5, the Kd in test [7] was 5.1 nM; in test [11] it was ~5 nM; in test [13], 5.09 nM. The values for the EC50 in test [8], in test [10] and in test [12] were 0.74 nM, ~0.7 nM and 0.74 nM, respectively. The koff in [9] turned out to be 0.000613 s⁻¹. For the same molecule, in [9], the kon is 121000 M⁻¹ s⁻¹.

B6: CD4-Nb2 (VHH)
VHH: EVQLVESGGGSVQPGGSLRLSCGASGFDVDYYAIGWFRQAPGKEREGVSCIASSDGSTYYADSVKGRFTISRDNAKNTVYLQMNSLKPEDTAVYYCAADATCPYYCSGSVCYLETGMDYWGEGTLVTVSS
notes: Unlabeled, expressed in E. coli
As for B6, the Kd in [7] was 6.5 nM; in [15], ~7 nM; in [17] it was 6.53 nM. Further, the figures for the EC50 in test [8], in test [14] and in test [16] were 0.73 nM, ~0.7 nM and 0.73 nM, respectively. In addition, the koff in test [9] came to 0.000795 s⁻¹. Besides, the kon in [9] amounted to 122000 M⁻¹ s⁻¹.

B7: CD4-Nb3 (VHH)
VHH: HVQLVESGGGLVQPGGSLRLSCAVSGFALEYYAIGWFRQAPGKERERVACMSASGGVINYSESVKGRFTISRDNAKNTVYLQMNTLKPEDTAVYYCAAEKAYYGSSWAECYLMMDYWGKGTLVTVSS
notes: as for B6
B7: the Kd in [7] amounted to 75.3 nM; in test [15], 75 nM. Besides, the EC50 in [8] and in test [16] was 533 nM throughout. The koff in test [9] came to 0.00618 s⁻¹. Besides, the kon in test [9] was determined as 82000 M⁻¹ s⁻¹.

B8: CD4-Nb4 (VHH)
VHH: EVQLQESGGALAQPGGSLRLSCAVSGFTFGTYGMGWLRQAPGKGREFVAAINWIHGGEIYADSVKGRFTISKDNAKNTLYLQMDSLKPEDTAVYYCAARSGTSLYTGVDEYQYWGQGTQVTVSS
notes: as for B6
Regarding B8, in [8], a half-maximal response (EC50) required 7360 nM. Moreover, in [15], the Kd is 135 nM. Also, in test [9], the koff was 0.016 s⁻¹ and the kon came out at 118000 M⁻¹ s⁻¹. The molecule further yielded an EC50 in test [18] of 7360 nM.

B9: CD4-Nb5 (VHH)
VHH: EVQLQESGGGLVQAGGSLRLSCKVSGRTFGTYAMGWFRQAPGKEREFVAVISWIKGNTYVADSVLGRFTISRDNARNWLHLQMYSLKPEDTATYYCAASSTVTLPTTLDPYTYWGQGTPVTVSS
notes: Unlabeled; excluded from further analyses after the live-cell staining
In the case of B9, the binding result in test [19] is “no binding (tested: not printed on the sheet)”.

As usually defined, the Kd is the free concentration of one partner at which half of the binding sites on the other are occupied at equilibrium, for simple one-to-one binding. The EC50 is the concentration at which the effect is half-maximal. High values mean a need for much substance, low ones an effect from little substance. As usually defined, the koff is a measure of how fast the partners let go of each other. The term kon denotes a measure of how fast the partners come together.
